Test results as given in patent publication US20210163535A1 (KYUNGPOOK NATIONAL UNIVERSITY INDUSTRY ACADEMIC COOPERATION …, published 2021).
No end group written: not given here.

Biological target: T1, wild-type CD44 (UniProt P16070-12 21-361, limits assumed)
T1 construct: The isoform is not defined beyond 'wild-type'
Assay: pull-down of cell lysate with biotinylated peptide on avidin beads, Western blot

T1 sequence (P16070 other isoform, or with tags, fused parts or gaps limits assumed): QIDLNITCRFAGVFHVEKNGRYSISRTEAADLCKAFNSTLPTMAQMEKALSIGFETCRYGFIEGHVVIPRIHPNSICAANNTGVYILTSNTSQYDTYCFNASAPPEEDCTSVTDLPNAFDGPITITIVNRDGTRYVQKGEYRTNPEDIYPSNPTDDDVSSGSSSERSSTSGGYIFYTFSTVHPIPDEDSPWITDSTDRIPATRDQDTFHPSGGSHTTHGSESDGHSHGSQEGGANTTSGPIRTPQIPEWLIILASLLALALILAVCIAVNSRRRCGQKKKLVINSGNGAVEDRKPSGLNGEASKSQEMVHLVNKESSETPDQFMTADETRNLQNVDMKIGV

Binder | binding result
CNLNTIDTC (cysteine pairing not given here; also: FITC-labelled or biotinylated, site of label not given here, Selected from a CX7C phage display library; also called clone-1; FITC-v6Pep-1) [v6Pep-1] | no binding
CNEWQLKSC (cysteine pairing not given here; also: FITC-labelled or biotinylated, site of label not given here, Selected from a CX7C phage display library; also called clone-2; FITC-v6Pep-2) [v6Pep-2] | no binding
